Assay results reported in the DeepSol protein solubility set.

test: soluble on expression in E. coli; label from the status in PepcDB or PDB records

Sequence	soluble on expression in E. coli
MCSKQSANQQISYRQTAEATLDKGMDNQPEAPYWFPKQLLKWQLSKDKAAKYNTASVPLAKRIDKWQLPTVNKTQDPKMKVVALSIMNSSTSGNAPRGINTFDANVFSNWQYIDQLVYWGGSAGEGLIVPPTADVIDSAHKNGVPVLGTVFFPQVVSGGKLKWLNDFLKQDADGHFPMADKLVAVAKAYGFDGWFINQETDPEVKSFDSASTGKTATSSTSNGLSKKHAQLMQQLIKEYKQKAGSKLDLMWYDSMTKDGKMDWQNALTKENQSYLVDANMKPVADSMFLNFWWTKKRLASQELLKKSHERAEKLGISPYNLFAGIDVQADGTATPVRWNLFANKQHVPYTSLGLYAPDWTHASSDTVDEFQAKEGALWVNLEHHHHHH	soluble
MCSTFMHKFYNSFYFGVMLTTRKEEQMLSKIVWSLLKPQLSSRSYLYNKFVVPPLQIIYVQ	soluble
MCTALMAIPEDGDTEVVSEKTFKVFSLLNLDAPYLHDKAHVTEEEEITGCCGRRKGALIATMQVDEIGVMPGMTSKISLTVENKTKKRKKWMRKKDNHECVLLSLCQQLDFVAVNRNDPMMIDRKSITIAVESHGTCKTKAGVGPQTKEIEFSVPPNLPPTSIHANRLVTVSYFFKLDLDHFDLVLPVIVGSVKSSASNGSEK	not soluble
MDAEGNLFMSWRDGGTFGIARINEQQNIVTPLIEADAANRILYANGLTVDRATGMLTAAHESVKEVTFTFDPREAWYPRQRNIKYSQSDLNSIVDADRYKNFVTFCPYDGYLYTRYRDGKIAKIDPNTFEGHIIHQGPSGSQYGQAINPAKPWLLYITLHSNAPTAYRQGISVLDLRDPDGTGGFKRLNAPGGSAFRDGPIEDALFNYPKDIKFDNDGNMFVADYGNHCIRMISADNIVTTVAGQPGVAGYKDGGPVESLFKNPWGVAVNEQGDIYIADWGNARIRKLVIELEHHHHHH	not soluble
MDALVIRNPELLADALRGLSQSPKRMEPKWFYDAEGSALFERITELPEYYPTRTETAILTAGADRLAAHVPEGAELVELGSGASVKTRLLLDRLTGLSAYVPVDISASFLKETARALARDYPDLPIHPVVADFTKPLRLADEGHPRVGFFPGSTLGNLDPEGARALMRGVRDWPGIRGFIVGIDLIKDEDTLVRAYDDAAGVTAAFNLNLLHRMNREIGADFDPDRFAHRAIWNAEKARIEMHLESLEDQEVQIGPRRIRFRAGETIHTENSHKFSATSFAERAAEAGWRLADFLTDARRQFGVAVLEPA	not soluble
MDAQTFKTAIVRRRLVDVLMNPELKATLVLKNGLVINVVTREIYPADVAVYDEYILKVGDASDLIGPETEVVDLQGKYYVSPGFIDSHMHFESSMLTISEFSRLSIPSGTTTLVADPHEIGNALGPVGIKAMAEETKVVPNRVYLVVPALTPDCPGLETAGYDITSRDMPEILNYPNVIGIGELQGFSNAKYVYKYTPEIITDLIASTTYAKSIGKIVDGNAPELFGSELAAHLIAAGTEASCHETTTKEECVEKLRYGMYVFMREGSTQKNMAECIRAVTEEGLDSRRLIGATDDMVAEDLAKNGHMNWVVARIIKQGIDPVEAIQMVTINPATYFGLKHVGVLAPGKMADIVVISDLMDMKVEKVYIGGKLVAEKGKMVVNIPKYTYPEEVKHSVKCKPVTAEALEIKATGSNAVVRTIGLIPDQNLTESFEFTVPVSGGVAQPDLTQDVLPIAVVERYGRNGSIGRAFVRGFGLKGGAFAESVSHDAHNIIVVGTSYQDMALAVNRVIEMGGGVAVVKNGRVLGDLRLPVGGLITDELDGYELSRKIAELHRLTAVELGCTVHAPFMHLSFLALTTSPKWKITDQGLIDVNSFAIIPPVK	soluble
MDDILVTSDLTSRYKISRKTLWSWQSADTMPRGFVCPFPPPDWPGNPNRWRSESIKEWEDKKKIN	not soluble
MDDLASQSFPEPERAIMKATYQVLCEYGYADLTIQQIADEYGKTTTAVHYHCDTKNKLLTAFLDYLLEELADSVHNIRTTNPENRLKFLLDELLVKSKNEPVLSIALLEMQSQTPYKEPFRERFKQMAVVNRQTELDFTVSETA	not soluble
MDEGMQIVGAVSGLSTPFNQNVSLECYNGILSMLLNGAPLADILHALVLKIEDQRLGTHASVLLLSEDGKRVLTGAAPHLPDSYNQVIHGVEIGPEVGSCGTAAYTGQRVIVEDIEHHPYWALYKSFALVHGLRACWSEPIKDTQGKVLGTFAMYYKEIKSPTVADLTLIAEAARLASLAIERSRSLEFQRLAVKIFDRLPLALVITNASHSVLYANDAFKLMVCLQPDDILAFNPEQFFSPSEPHEIASLFNHLSEGKMWQGELVGLRNNGETFYLDLTVTVFRESHSADLGFAWLFSDVSERKKAAQLIKYQANNDSLTGLANRNALFRQIQELINADSLTPGFSFMLMDLDNFKQVNDTYGHDKGDVLLVQMVEQVKICLDPQAVFARLGGDEFAILLPGVVTQRELSQLADKINKQVYRRYELSHDKGVYSSVSIGIARFPEDALDLEQLLNCADQAMYISKANGRNRYHFFTEQMQQNAERIANLHTLLKQALEQNAFELYFQPIVDATTGLIVRAEVLLRWQHEGQFISPDEFIPIAENSGLIVSIGRCVRQAVMQTIVEMQALGWPMSLAINVSTFEFWSHELQDEFCDSFTDIIEGLGVEDFPYELITLEITESLLMKKHAHLIQVLNELRARGIKISLDDFGTGYSSLSYLANFPIDQIKIDKSFIDRLAEGERHLALIEAIVRLSHALNLRVTAEGVETQEQLQVMMDNHIQEIQGYLFYKPIPKAVFFELLAKQAVISPHSLEHHHHHH	not soluble
MDENALRFASYWRNSLADAESGKGCFERKDAQNFTHWHGIAAGRLDEAIVNKFFKGEKDDVETVNVILRPKVYFRLLQHGKDRSAGTPDIVTPIVTPALLSREGFLYPTPATSIPRDLLEPLPKGAFSIGEIGQYDKYKTTHTDPTHVMWTRP	not soluble
MDFEQLKQDVIAYSKTIGIDKIGFASASPFEELKQRLIQQQQLNYQSGFEEPDIEKRTNPQLLLPGAKSIIAIALAYPSKLKNAPLSKRGERRGIFCRASWGQDYHLVLRDRLQKLEAYLIEKLPDIEVKSMVDTGELSDRAVSERAGIGWSGKNCSIITPEFGSYVYLGEMITNVPFPPDKPIEDQCGGCTKCIDICPTGALIQGGQLDSKKCIAFLTQTKGFLPEEYRDKIGNRIYGCDTCQTVCPKNKGMDFHNHPEMEPDPELVKPLLTPLLTISNRDFKEKYGIMSGSWRGKKPLQRNAILALAHFKEASAIPDLIGVMKDDPRPVLRGTAAWALGKIGGDGVGEAIEKAMEREKDEEVLHEMNRGLELLAQKKE	not soluble
MDFKASGTKFKKTGKKVVPAKAFEEIVQTNRDVLKKSAFLSDLLENLQPHLNNIKKIRCVAIGNFKEDFPATYQFALLLEITDYIKSEDERDVVVSLYDPIFTKEEIQYLKSLGSKWLIEEEFSENDAIDYESVLYFLPHAPLDLTENILSSQRPHLWLANNMISHTDRYTKAKLCENYPNLSKLVHYLQTNAPPEVKKAHDVDGFATFIPKRKRKNRNNSSKLKVTPSDIDYDSIAPKFKSCQILTDFDEGKYLKEKPWINSFSDLTLHAIEY	not soluble
MDGAQPKTNFFERLIARLAREPDSAEDVLNLLRQAHEQEVFDADTLTRLEKVLDFAELEVRDAMITRSRMNVLKENDSIERITAYVIDTAHSRFPVIGEDKDEVLGILHAKDLLKYMFNPEQFHLKSVLRPAVFVPEGKSLTALLKEFREQRNHMAIVIDEYGGTSGLVTFEDIIEQIVGDIEDEFD	soluble
MDGELRAQGLRKRYGPKEVVRGVDLALRRGEIVALFGPNGAGKTTTFYMVVGFIRPTGGRIYLKGQEITALPMYKRARLGLGYLPQEPSAFRRMTALENLLAVLEFQPLSKKERLEKAKALLEELSIYHLRDRMAYSLSGGERRRLEIARALATDPDFLLLDEPFTGVDPKNVREIQKVIAELRERRGVGVFITDHAVRETLAITDRVYLMYDGQVLFHGDPETFAKDQGVRRHYLGEDYEL	soluble
MDGFDASPKAIAARRAKVFDPVGGYEYFVNTYFPHYIRSPEKSELHAFLFSRLPEIIRSPKGENEAVGAPRGEGKSTKVTQLFTLWCIVTGQKHYAVIVMDSIDQAYPMLEAIKAELEFNPRLKTDFPEVCGQGRVWQAGTIVTANDVKVQVAGSGKKLRGLRHGPYRPDLTVLDDIENDEQVRNPEQRDKLNAWLTKTVLPLGGVGQKYDVIYIGTILHYDSVLNRTLNNPFWHGIKFKAMKRWPDRMDLWDRWEELFRNDGETVAEAFYQANKDEMERGAVTSWAARGVLALMKIRARDGHATFDSEYQNDPVSGEDAPFAKSMKFWNDLPSDLVYFGALDPSLGKAGASRDPSAIIIGGYQRVTGKLYVVEAQIKKRLPDLIIEDVIRLHRQYRCKLWFVETVQFQEFLKDELVKRSAARGIPVPARAVKPVSDKLLRIETLQPHMANGLILLNESQQTLIQQFRHFPKADHDDGPDAVHMLWSGAVANCVPIEWQSPTDNDFDDEIKSKWSR	not soluble
MDHQLSQHDIFISQDGQLQLTVAVDTETVWLTQAEICVLFDRERSVITKHINNVFKEGELERDSVCAIFARTADDGKTYQTQYFNLDVIISVGYRVKSKRGVQFRQWATNTLKQHLLQGYTLNQQRLVQRGIEFNQALALLSKTLTNQALINPDGQAVVNVIAEYARSWSLLQGYDEQSLTEITHKQQQMQPLALDEVLAAIAALKTNLIAKGEATDLFAQLRGNGLASSIATIEQGFGGEWFYPNVASRAAHLLYFIIKNHPFADGNKRTGSFLFLWYLQQNQHLLAKPVSEQINDTTLVALALLVAESLPDQKELMIRLIEHFILLKDSEAAALEHHHHHH	soluble
MDIAKWVEHARTCYSTQLDTKIKVIGVIGKDYPDHGKGDNINCYLRENVFPVAATEDETCTIRGHFSEDDQILFLVMNGVDDVANIRKCLKSNPKSNYFDAMAESECQQIRMLHFLFISCHFIIIFEQTSRIDLELMRFLKKVNSARIQLRKKINQRLVASDLRDVSFNNRILSSAESEGRMVVPRLLIAFQRNNIRPDVNPGKKRELYEKLEKNLDNQFSDILKLYDLIDCGASSLCQLNETIPVVHLLNPKIVKRDIIGEMFEILMADAENTKISGNAGTLPSNNSFVKFLEDNFRSEKNEISLENVIELMNCLQCVLDGDLEEKHEKTAIQTFIKRIQNDHMEEARRLYTNAQRPGERRGADRFKDSEKPVKIRSKEEHLMRVEKPKKFCIFISFQNVLQFNEATHYIDSVVGVNSREALSQLQAQCNEMWQSDMRACESVSMMGRSCVRKIHPTFGDQTAPEHRWTAHDASNTMISTCVCGRKQLIRPEPFSVKEANSDFYDHPDFKCCRRLWRYQFQLYQEDSEEKDDIMWADRESNSLRAAKKMAQREDELAEEDTDLDIPESLLDPDSTSPSDEDDVRVRTMSSSESSSQESDAYLRPTSRRDESMASKTERELTIDHVKRMQKLELAGKSEDFLITVPNSMTTGKLPIFPSWHLTSLGDSSIYSHGAGLKNQPNFKIGGDYLSPVVVLLDVNFDVWNRDLNKIRSEDFSRKCGKDNKDDSARVKLFVGFEYECSRGHRFFVDYNGEPLIYSKGSNVIRESAHRSSLGNVLQADLPIRRPCTCRKLPLQSAQLQKVHVVTPKAPVHITIDPKVLIPTHEGVYGTGQEPLELHHSKYYILHLPTVYSGPSGAWMPGEFNPEKQGVWMGGALKVAYKPVMSFKW	not soluble
MDIDMNYPSITTLMSNESANLLIIWGNATPDISYLSYTTNPMLGDYVLNVSAINGCTEELIATHLVPTLENATQWVYDAGEYWDNYSFTDESTPLPGLSWPFNE	not soluble
MDIIRLGDTTSHGGTVIEAFGQTDLNGKPMAGVGHQVVCPLCKGTFPITEGSALLDVNGVPVALHGMKTACGASLIASGPLGAAEN	not soluble
MDIMQGPSESFVDFANRLIKAVEGSDLPPSARAPVIIDCFRQKSQPDIQQLIRTAPSTLTTPGEIIKYVLDRQKTAPLTDQGIAAAMSSAIQPLIM	soluble
